Experimental data from patent publication US20250249111A1, “ERIBULIN-BASED ANTIBODY-DRUG CONJUGATES AND METHODS OF USE” (priority 2022, published 2025).

Key:
Type in all cases: in vivo, human
[1] = tested on: platinum resistant ovarian cancer (PROC); experiment: Dose-response and exposure-response (E-R) analysis for ORR in subjects with PROC; details: for ORR (%): PROC
Protocol: MORAb-202 was administered to subjects (N=58) with platinum resistant ovarian cancer (PROC) over a body weight (BW)-based dose range of 0.3 to 1.2 mg/kg. All doses were administered at Q3W. A dose-response assessment was carried out to calculate a relationship between dose and objective response rate (ORR) over this dose range. Clinical pharmacology assessments were conducted to evaluate the dose relationships between MORAb-202 and objective response rates (ORR) or ILD. The dose-response relationships were calculated using logistic regression analyses. An E-R efficacy (ORR) analysis was conducted with PROC subjects (N=58) across the dose range of 0.3 to 1.2 mg/kg Q3W. […] Exposure (AUC) was the only significant predictor of the probability of an objective response in multivariate analysis (as shown in FIG. 1). Age, weight, non-high grade serous OC (versus high grade serous OC), ECOG-PS (1 vs 0), and expansion (versus dose escalation) were not significant predictors of an objective response (OR). Higher doses above 1.2 mg/kg Q3W would be expected to result in a higher probability of an OR, given linear PK and lack of saturation of OR across the current dose range. Based on the results of the E-R analysis, clinically meaningful efficacy is expected across the dose range of 0.68 to 1.2 mg/kg. However, as described in section 1.2.3, an overlapping AUC dependence to ILD is observed.

[2] = tested on: subjects with PROC, endometrial cancer (EC), triple negative breast cancer (TNBC), and non-small cell lung cancer (NSCLC); experiment: Dose-response relationship for ILD across tumor types
Protocol: MORAb-202 was administered to subjects (N=82) with PROC, endometrial cancer (EC), triple negative breast cancer (TNBC), and non-small cell lung cancer (NSCLC) over a body weight (BW)-based dose range of 0.3 to 1.2 mg/kg. All doses were administered at Q3W. A dose-response assessment was carried out to calculate a relationship between dose and ILD rate over this dose range.
Clinical pharmacology assessments were conducted to evaluate the dose relationships between MORAb-202 and objective response rates (ORR) or ILD. The dose-response relationships were calculated using logistic regression analyses.

[3] = tested on: subjects with PROC and across tumor types (PROC, EC, TNBC, and NSCLC); experiment: Exposure-response (E-R) analysis for ILD in subjects with PROC and across all tumor types; details: N=96 in total (48/96); PROC 0.3 to 1.2 mg/kg Q3W and across tumor types 0.9 to 1.2 mg/kg Q3W
Protocol: An E-R analysis of ILD was conducted with data from subjects with PROC across the dose range of 0.3 to 1.2 mg/kg Q3W as well as subjects across tumor types (PROC, EC, TNBC, and NSCLC) across the dose range of 0.9 to 1.2 mg/kg Q3W (N=96 in total). Forty-eight subjects had ILD identified by expert review for an ILD rate of 50% (48/96) across both subject groups and dose ranges. AUC and age were significant predictors in multivariate analysis with both higher AUC and higher age predicting a higher probability of ILD. Weight, albumin, ECOG-PS (1 vs 0), Study, and tumor type (OC vs other) were not significant predictors. The probability of ILD by AUC was predicted at the median age (60 years) and plotted along with the observed ILD rate for each exposure quartile (as shown in FIG. 2).

[4] = MORAb-202 population pharmacokinetics (PPK) model
Protocol: Different dosing regimens were simulated to select a dose of MORAb-202 that would minimize ILD rate while maintaining a high ORR. Stochastic simulations were conducted using the MORAb-202 population pharmacokinetics (PPK) model shown in Table 13 to predict AUC and Cmax for different dosing regimens. […] BW and serum albumin were significant covariates on CL (total clearance) and BW on volume of distribution. Five dosing regimens were simulated: 1) flat dose of 63 mg; 2) BW-based dose of 0.9 mg/kg; 3) BW-based dose of 0.9 mg/kg with a maximum total dose cap of 70 mg; 4) adjusted ideal body weight (AIBW)-based dose of 1.0 mg/kg; and 5) BSA-based dose of 33 mg/m^2 (equivalent to BW-based dose of 0.9 mg/kg). All dosing regimens were simulated on a Q3W treatment cycle.

[5] = tested on: subjects with ovarian cancer (OC) and endometrial cancer (EC); experiment: Preliminary results from Phase 1/2 trial, BSA-based dosing cohorts
Text: MORAb-202 will be administered as an intravenous (IV) infusion once every 3 weeks (21-day cycle). Treatment will stop upon intolerable toxicity, disease progression, or subject withdrawal for any reason. The Dose-Confirmation part will evaluate the safety and preliminary efficacy of MORAb-202 at selected dose levels in subjects with OC and EC. There will be approximately 30 subjects in the Dose-Confirmation part in 4 study treatment cohorts. If at any time ≥2 Grade ≥3 ILD/pneumonitis (National Cancer Institute Common Terminology Criteria for Adverse Events [NCI CTCAE v5.0]) events are observed, the sponsor will pause enrollment, pending IDMC review. The initial cohort will enroll 6 subjects at 25 mg/m^2 of MORAb-202. The dosing regimen for this study is body surface area (BSA)-based dosing. The dose levels to be used in this portion of the study have been matched to body weight doses of 0.9 mg/kg and 0.68 mg/kg with BSA doses of 33 mg/m^2 and 25 mg/m^2 respectively. The BSA dose equivalents were confirmed using predictions from a MORAb-202 population PK model (described in Example 1). This revised dosing regimen has been implemented in the Dose-Confirmation part of this study due to the potential to reduce the ILD risk in higher body weight subjects whilst using doses within the therapeutic index of MORAb-202. The dose evaluation part of the study was designed with two sequential cohorts at 25 mg/m^2 and 33 mg/m^2. Enrollment has been completed in the two sequential cohorts. A total of 14 subjects were enrolled and treated with MORAb-202 with 7 subjects in each cohort. Further investigation will continue at 25 mg/m^2 Q3W. […] BSA-based dosing decreased the total amount of drug (mg) compared with BW-based estimated total dose in most subjects. Additional testing is planned for every two weeks and for once per week dosing regimens.

[6] = PROC subjects (N=58), 0.3 to 1.2 mg/kg Q3W
[7] = BW-based dose 0.45 mg/kg Q3W, N = 3
[8] = BW-based dose 1.2 mg/kg Q3W, N = 24
[9] = 25 mg/m^2 Q3W, preliminary, 7 subjects per cohort

MORAb-202
ORR ([1]; PROC subjects (N=58) across the dose range of 0.3 to 1.2 mg/kg Q3W (23/58)): 39.7% | subjects with a CR (complete response) [1, 6]: 2 | subjects with a PR (partial response) [1, 6]: Twenty-one | ORR (%) ([1]; BW-based dose 0.3 mg/kg Q3W, N = 1): 0 (0) % | ORR (%) [1, 7]: 0 (0) % | ORR (%) ([1]; BW-based dose 0.68 mg/kg Q3W, N = 2): 50% | ORR (%) ([1]; BW-based dose 0.9 mg/kg Q3W, N = 28, 0.9 mg/kg): 32.1% | ORR (%) [1, 8]: 54.2% | ILD (%) ([2]; BW-based dose 0.3 mg/kg Q3W, N = 3): 0 (0) % | ILD (%) [2, 7]: 0 (0) % | ILD (%) ([2]; BW-based dose 0.68 mg/kg Q3W, N = 6): 16.7% | ILD (%) ([2]; BW-based dose 0.9 mg/kg Q3W, N = 46): 37.0% | ILD (%) [2, 8]: 58.3% | ILD rate (ILD identified by expert review) [3]: 50% | dose proportionality of exposures ([4]; PPK analysis): dose proportional | Inter-Individual Variabilty R CL-V1 ([4]; final PPK model): 0.577 | Q, estimate ([4]; final PPK model): 0.008039 L/h | Residual Additive (SD, ug/mL) ([4]; final PPK model): 0.0992 µg/mL | V1, estimate ([4]; final PPK model): 2.482 L | V2, estimate ([4]; final PPK model): 1.875 L | CL (total clearance), estimate ([4]; final PPK model, 2-compartment, IV infusion): 0.01595 L/h | BW on V1 (exponent), estimate ([4]; final PPK model, covariate): 0.559 | Mean PK profiles compared with those of a 0.68 mg/kg dose ([5]; 25 mg/m^2, MORAb-202, total antibody, and released eribulin): comparable | anti-tumor activity [5, 9]: initial anti-tumor activity | safety [5, 9]: Acceptable safety
